Molecular target: T1, FGF-5 (Homo sapiens, UniProt P12034)
T1 construct: host or cells: FGF-5 added exogenously to NR6R-3T3 murine fibroblasts
T1 sequence (P12034 21-268): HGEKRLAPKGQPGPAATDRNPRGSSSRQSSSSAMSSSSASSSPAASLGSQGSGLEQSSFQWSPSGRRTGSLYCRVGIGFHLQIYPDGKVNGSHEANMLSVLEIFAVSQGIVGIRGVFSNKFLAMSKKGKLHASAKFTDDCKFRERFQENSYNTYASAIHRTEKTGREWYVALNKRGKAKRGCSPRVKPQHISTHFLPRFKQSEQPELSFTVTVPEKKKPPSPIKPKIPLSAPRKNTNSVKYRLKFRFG
Assay: BLA binding assay on FGF-5 coated plates, nitrocefin readout
Conditions: purified peptide-BLA fusions at 0.1 nM, bound to FGF-5
Description: This Example describes secondary screening methods used to analyze FGF-5 binding npeptides. Individual clones were picked and grown up in 5 ml LB+5 ppm CMP overnight at 37° C. The cell pastes were then treated with 125μ of B-PER reagent (Pierce) for 30 min with slow mixing. COSTAR plates (96-well) were coated with 0.1 μg (100 μl of 1 μg/ml) FGF-5, carrier-free (R&D Systems #237-F5/CF, Lot #GQ18304A) with gentle rocking at 4° C. overnight, followed by blocking with Superblock blocking buffer (Pierce) for several hours at room temperature. Then, 100 μl B-Per treated supernatant from individual clones from pGV02-L were added to the FGF-5 coated plates. After one hour, plates were washed six times with PBS, 0.05% TWEEN®-20 and 200 μl of nitrocefin assay buffer containing 0.1 mg/ml nitrocefin (Oxoid) was added to measure residual bound beta-lactamase activity, using Abs490/min. Control wells contained pCB04 (See, FIG. 1C) beta-lactamase as a control. […]
Cell pastes were harvested from the 200 ml cell cultures described in Example 6, by centrifugation at 3,000×g for 10 min. […] BLA activity of all liquid fractions was assayed using nitrocefin, and the concentration of fusion proteins in each fraction was calculated assuming the same specific activity as the WT enzyme. […]

B1: WT (wild-type): Wild-type BLA (E. cloaceae beta-lactamase) without peptide, control for binding of the fusions (protein)
chain: TPVSEKQLAEVVANTITPLMKAQSVPGMAVAVIYQGKPHYYTFGKADIAANKPVTPQTLFELGSISKTFTGVLGGDAIARGEISLDDAVTRYWPQLTGKQWQGIRMLDLATYTAGGLPLQVPDEVTDNASLLRFYQNWQPQWKPGTTRLYANASIGLFGALAVKPSGMPYEQAMTTRVLKPLKLDHTWINVPKAEEAHYAWGYRDGKAVRVSPGMLDAQAYGVKTNVQDMANWVMANMAPENVADASLKQGIALAQSRYWRIGSMYQGLGWEMLNWPVEANTVVEGSDSKVALAPLPVAEVNPPAPPVKASWVHKTGSTGGFGSYVAFIPEKQIGIVMLANTSYPNPARVEAAYHILEALQ
B1 was tested, and the “Percent Bound at 0.1 nM” value was 0.4%.

From US7485618B2, “FGF-5 supported and binding peptides” (Genencor International, Inc., priority 2003, dated 2009)
